In PMC5636754, “Structural and biochemical characterization of DAXX-ATRX interaction” (Protein & Cell, 2017):

B1: ATRX_(1,265–1,285), α-helix frame only (αDID), wild type peptide [human] / DAXX helical bundle (DHB) domain of death domain-associated protein (DAXX), aa 55-144 [not stated] (parent complex)
chain 1: NDPENRIAKKMLLEEIKANLS
chain 2: GKKCYKLENEKLFEEFLELCKMQTADHPEVVPFLYNRQQRAHSLFLASAEFCNILSRVLSRARSRPAKLYVYINELCTVLKAHSAKKKLN

Variants of: B1
Assay: ITC
Variant chain 1 D2N has a Kd of 7 µM.
chain 1 E4Q showed a Kd of 5.6 µM.
With chain 1 K9A the Kd was 2.3 µM.
Variant chain 1 E15Q has a Kd of 3.2 µM.
